Assay results from PMC2757176 (The Journal of biological chemistry, 2009).
Non-standard residues stand in square brackets, D forms with d. No end group written: not given here. *: point of attachment. Biotin = O=C1N[C@H]2[C@H](CS[C@H]2CCCCC(=O)*)N1; pY = N[C@@H](Cc1ccc(OP(=O)(O)O)cc1)C(=O)O

T1: PLC-γ1 SH2 N+C (aa 545 to 749) (human, UniProt P19174 545-749)
T1 sequence (looked up): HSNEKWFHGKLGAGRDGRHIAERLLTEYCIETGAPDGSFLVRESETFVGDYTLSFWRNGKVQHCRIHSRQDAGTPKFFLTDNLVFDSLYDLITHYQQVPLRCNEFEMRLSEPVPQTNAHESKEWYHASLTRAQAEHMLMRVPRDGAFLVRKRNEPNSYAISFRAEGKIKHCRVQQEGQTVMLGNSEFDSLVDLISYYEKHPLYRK

B1: LCK-SH3-SH2 (aa 58 to 230) (domain or fragment, human, UniProt P06239 58-230, looked up)
chain: ASPLQDNLVIALHSYEPSHDGDLGFEKGEQLRILEQSGEWWKAQSLTTGQEGFIPFNFVAKANSLEPEPWFFKNLSRKDAERQLLAPGNTHGSFLIRESESTAGSFSLSVRDFDQNQGEVVKHYKIRNLDNGGFYISPRITFPGLHELVRHYTNASDGLCTRLSRPCQTQKPQ
B2: EAT-2 127 peptide, biotinylated, phosphorylated (peptide)
peptide: Biotin-NSNSD[pY]VDVLP
B3: FYN-SH3-SH2 (aa 82 to 248) (domain or fragment)
chain: not shown

Experiments:
Assay in all cases: SPR
[1] = target: T1, PLC-γ1 SH2 N+C (aa 545 to 749)
[2] = target: B2
[3] = target: B3
[4] = target: B1

Binder	Kd [3]	Kd [4]	other results
Biotin-HNPG[pY]LVVLP [LAT 132 peptide, biotinylated, phosphorylated]	–	–	Kd [1]: ~0.02 µM
B1	–	–	fold weaker than FYN binding to human EAT-2 [2]: 10 fold
Biotin-QKGPPLPRPRVQPKPPHG [CD2-322 peptide, biotinylated]	~4 µM	> 1000 µM	–
Biotin-HPPPPPGHRSQAPSHRPPPPGHRVQ [CD2-281-305 peptide, biotinylated]	~4 µM	> 1000 µM	–
B2	–	–	Kd [1]: ~0.04 µM
B3	–	–	fold weaker than FYN binding to the CD244 ITSM [2]: ~5 fold
Biotin-EFLTI[pY]EDVKD [CD244 ITSM 1 peptide, biotinylated, phosphorylated]	~0.2 µM	~2 µM	–
